{
  "source": "IntAct's records for PubMed 31515488",
  "parents": {"B1": {"name": "Syntenin-2 (Homo sapiens), Q9H190 (parent)", "chain": "MSSLYPSLEDLKVDQAIQAQVRASPKMPALPVQATAISPPPVLYPNLAELENYMGLSLSSQEVQESLLQIPEGDSTAVSGPGPGQMVAPVTGYSLGVRRAEIKPGVREIHLCKDERGKTGLRLRKVDQGLFVQLVQANTPASLVGLRFGDQLLQIDGRDCAGWSSHKAHQVVKKASGDKIVVVVRDRPFQRTVTMHKDSMGHVGFVIKKGKIVSLVKGSSAARNGLLTNHYVCEVDGQNVIGLKDKKIMEILATAGNVVTLTIIPSVIYEHMVKKLPPVLLHHTMDHSIPDA", "partner": "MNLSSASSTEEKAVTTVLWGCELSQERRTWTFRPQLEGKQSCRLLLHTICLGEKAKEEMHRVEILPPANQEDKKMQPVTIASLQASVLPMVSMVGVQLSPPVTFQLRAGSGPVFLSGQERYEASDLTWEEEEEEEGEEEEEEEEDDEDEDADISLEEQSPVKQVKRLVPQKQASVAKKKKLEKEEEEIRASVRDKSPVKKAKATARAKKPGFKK"}, "B2": {"name": "Caspase recruitment domain-containing protein 9 (Homo sapiens), Q9H257 (parent)", "chain": "MSDYENDDECWSVLEGFRVTLTSVIDPSRITPYLRQCKVLNPDDEEQVLSDPNLVIRKRKVGVLLDILQRTGHKGYVAFLESLELYYPQLYKKVTGKEPARVFSMIIDASGESGLTQLLMTEVMKLQKKVQDLTALLSSKDDFIKELRVKDSLLRKHQERVQRLKEECEAGSRELKRCKEENYDLAMRLAHQSEEKGAALMRNRDLQLEIDQLKHSLMKAEDDCKVERKHTLKLRHAMEQRPSQELLWELQQEKALLQARVQELEASVQEGKLDRSSPYIQVLEEDWRQALRDHQEQANTIFSLRKDLRQGEARRLRCMEEKEMFELQCLALRKDSKMYKDRIEAILLQMEEVAIERDQAIATREELHAQHARGLQEKDALRKQVRELGEKADELQLQVFQCEAQLLAVEGRLRRQQLETLVLSSDLEDGSPRRSQELSLPQDLEDTQLSDKGCLAGGGSPKQPFAALHQEQVLRNPHDAGLSSGEPPEKERRRLKESFENYRRKRALRKMQKGWRQGEEDRENTTGSDNTDTEGS", "partner": "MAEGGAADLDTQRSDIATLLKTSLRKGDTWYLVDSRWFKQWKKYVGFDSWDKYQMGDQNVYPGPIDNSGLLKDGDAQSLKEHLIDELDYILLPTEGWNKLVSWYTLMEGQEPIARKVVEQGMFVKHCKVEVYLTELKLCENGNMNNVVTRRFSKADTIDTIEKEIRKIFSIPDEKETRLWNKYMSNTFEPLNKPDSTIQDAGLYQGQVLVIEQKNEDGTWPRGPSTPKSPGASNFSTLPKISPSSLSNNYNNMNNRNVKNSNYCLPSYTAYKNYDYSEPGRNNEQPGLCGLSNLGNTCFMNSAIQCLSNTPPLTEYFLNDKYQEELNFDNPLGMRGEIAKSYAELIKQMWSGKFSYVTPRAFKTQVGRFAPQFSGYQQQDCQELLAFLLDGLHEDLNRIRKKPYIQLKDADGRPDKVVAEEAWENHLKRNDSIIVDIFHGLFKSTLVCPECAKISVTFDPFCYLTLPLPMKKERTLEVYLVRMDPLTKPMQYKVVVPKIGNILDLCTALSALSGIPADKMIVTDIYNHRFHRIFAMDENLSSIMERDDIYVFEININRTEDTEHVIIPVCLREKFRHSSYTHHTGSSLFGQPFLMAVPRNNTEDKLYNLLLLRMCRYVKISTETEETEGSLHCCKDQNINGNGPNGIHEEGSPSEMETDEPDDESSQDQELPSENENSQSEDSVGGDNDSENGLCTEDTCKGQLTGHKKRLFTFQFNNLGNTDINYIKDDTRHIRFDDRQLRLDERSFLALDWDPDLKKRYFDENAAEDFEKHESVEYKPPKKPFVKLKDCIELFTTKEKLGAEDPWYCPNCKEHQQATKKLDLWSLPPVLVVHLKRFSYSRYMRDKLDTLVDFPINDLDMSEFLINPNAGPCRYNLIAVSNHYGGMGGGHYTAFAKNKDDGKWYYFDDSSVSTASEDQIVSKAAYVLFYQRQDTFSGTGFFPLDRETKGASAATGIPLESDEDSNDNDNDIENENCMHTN"}, "B3": {"name": "Synaptotagmin-like protein 4 (Homo sapiens), Q96C24 (parent)", "chain": "MSELLDLSFLSEEEKDLILSVLQRDEEVRKADEKRIRRLKNELLEIKRKGAKRGSQHYSDRTCARCQESLGRLSPKTNTCRGCNHLVCRDCRIQESNGTWRCKVCAKEIELKKATGDWFYDQKVNRFAYRTGSEIIRMSLRHKPAVSKRETVGQSLLHQTQMGDIWPGRKIIQERQKEPSVLFEVPKLKSGKSALEAESESLDSFTADSDSTSRRDSLDKSGLFPEWKKMSAPKSQVEKETQPGGQNVVFVDEGEMIFKKNTRKILRPSEYTKSVIDLRPEDVVHESGSLGDRSKSVPGLNVDMEEEEEEEDIDHLVKLHRQKLARSSMQSGSSMSTIGSMMSIYSEAGDFGNIFVTGRIAFSLKYEQQTQSLVVHVKECHQLAYADEAKKRSNPYVKTYLLPDKSRQGKRKTSIKRDTINPLYDETLRYEIPESLLAQRTLQFSVWHHGRFGRNTFLGEAEIQMDSWKLDKKLDHCLPLHGKISAESPTGLPSHKGELVVSLKYIPASKTPVGGDRKKSKGGEGGELQVWIKEAKNLTAAKAGGTSDSFVKGYLLPMRNKASKRKTPVMKKTLNPHYNHTFVYNGVRLEDLQHMCLELTVWDREPLASNDFLGGVRLGVGTGISNGEVVDWMDSTGEEVSLWQKMRQYPGSWAEGTLQLRSSMAKQKLGL"}, "B4": {"name": "Methylmalonyl-CoA epimerase, mitochondrial (Homo sapiens), Q96PE7 (parent)", "chain": "MARVLKAAAANAVGLFSRLQAPIPTVRASSTSQPLDQVTGSVWNLGRLNHVAIAVPDLEKAAAFYKNILGAQVSEAVPLPEHGVSVVFVNLGNTKMELLHPLGRDSPIAGFLQKNKAGGMHHICIEVDNINAAVMDLKKKKIRSLSEEVKIGAHGKPVIFLHPKDCGGVLVELEQA", "partner": "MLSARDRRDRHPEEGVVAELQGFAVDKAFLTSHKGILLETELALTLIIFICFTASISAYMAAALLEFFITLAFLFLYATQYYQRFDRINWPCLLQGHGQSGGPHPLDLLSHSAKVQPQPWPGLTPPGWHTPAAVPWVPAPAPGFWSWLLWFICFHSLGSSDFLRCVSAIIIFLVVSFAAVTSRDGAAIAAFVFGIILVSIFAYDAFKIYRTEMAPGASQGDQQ"}},
  "data": [
    {"variants_of": "B1", "settings": "with npm2_human NPM2, Q86SE8", "values": [
      {"variant": "V182M", "effect of a mutation on the interaction": "with no effect"}
    ]},
    {"variants_of": "B2", "settings": "with ubp15_human USP15, Q9Y4E8", "values": [
      {"variant": "V385L", "effect of a mutation on the interaction": "disrupting interaction strength"}
    ]},
    {"variants_of": "B3", "settings": "with hm20a_human HMG20A", "values": [
      {"variant": "D252G", "effect of a mutation on the interaction": "with no effect"},
      {"variant": "M646I", "effect of a mutation on the interaction": "with no effect"}
    ]},
    {"variants_of": "B3", "settings": "with cep70_human CEP70, Q8NHQ1", "values": [
      {"variant": "D252G", "effect of a mutation on the interaction": "with no effect"},
      {"variant": "M646I", "effect of a mutation on the interaction": "disrupting interaction strength"}
    ]},
    {"variants_of": "B4", "settings": "with cklf5_human CMTM5, Q96DZ9", "values": [
      {"variant": "R143H", "effect of a mutation on the interaction": "with no effect"}
    ]}
  ]
}
